Laboratory results taken from the supplement of paper PMC10126150.
± gives the standard deviation of the averaged measurements.

Test system: ATP
Test: switch fluorescence ratio, 500 uM ATP over buffer (Cy3 cluster intensity, sum of 5 cycles each) (fold (ratio)); higher = stronger signal-on switching upon ATP binding; sequences stand for … in TCGTCGGCAGCGTCAGATGTGTATAAGAGACAGTTTTTTTTTTTTTTTTTTTTTTTTT…TC
Conditions: aptamer strand: ATP DNA aptamer (quencher-CACCTGGGGGAGTATTGCGGAGGAAGG + anchor), 100 nM annealed; ATP concentration: 500 uM
In short: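 Between each of five buffer/ATP cycles, the flow-cell was stripped with NaOH and re-annealed. Each cycle imaged Cy3-labelled switching-strand clusters, annealed to 100 nM quencher-labelled ATP aptamer on a modified Illumina MiSeq flow-cell, first in selection buffer and then after 15 min with 500 uM ATP at 22 °C. The fluorescence ratio is summed target-cycle over summed buffer-cycle Cy3 intensity per cluster, averaged per switch-domain sequence, with clusters outside 100-1000 RFU excluded.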
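Further: ATP exposure 15 min at 22 °C before imaging.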

| Sequence | switch fluorescence ratio |
| --- | --- |
| ACACTGCCAT | 1.16 ± 0.032 |
| AGCCCCTTAG | 1.002 ± 0.0065 |
| ATCGTTGTA | 1.04 ± 0.069 |
| TTATAAAACC | 1.02 ± 0.028 |
| GGGTCAAAGT | 1.01 ± 0.013 |
| AGTTCATTGG | 1.04 ± 0.059 |
| AGGGGGGTTG | 1 ± 0.032 |
| TGTATGGGGG | 0.946 ± 0.038 |
| TGAGTGGGGA | 1 ± 0.013 |
| ACAGGGGTAA | 1.01 ± 0.013 |
| CAATGTGCAG | 0.98804 ± 5.9e-06 |
| ACTTATCGGG | 1 ± 0.029 |
| TTCAGCAAT | 5.31 ± 0.8 |
| ACCAGTGAGT | 0.969 ± 0.011 |
| CGTAACGTGG | 0.9938 ± 0.0078 |
| TTTTTCGGCT | 0.985 ± 0.044 |
| GGGAGTATTT | 1 ± 0.034 |
| AGTAGTTGGC | 1.01 ± 0.12 |
| GTTGGGGAAT | 1.04 ± 0.093 |
| TTAGGGGGTT | 1.04 ± 0.062 |
| TAAGTTGGGA | 0.98 ± 0.031 |
| AGAAAGTGGT | 0.992 ± 0.017 |
| CATTTTGCGT | 0.972 ± 0.035 |

| Sequence | switch fluorescence ratio |
| --- | --- |
| CTAGAAAGC | 1.02 ± 0.02 |
| TTATAGATGT | 0.992 ± 0.027 |
| TATGTTTGAA | 0.984 ± 0.015 |
| GGGTTTAGAT | 0.9854 ± 0.0059 |
| CGCTGAGCTG | 1 ± 0.029 |
| TTTACGGAGG | 1.03 ± 0.021 |
| ATTCGGTAGT | 1 ± 0.013 |
| GAACTAGGTG | 1.444 ± 0.0058 |
| TCGTGAGTTT | 0.996 ± 0.035 |
| ACTTCTGGAG | 2.15 ± 0.028 |
| ATGTCAGGGA | 0.994 ± 0.019 |
| TTTAGAGATG | 1.24 ± 0.41 |
| AGATACTGCA | 1.05 ± 0.0087 |
| AGTCTGGACT | 0.988 ± 0.025 |
| CGTACGGACG | 0.984 ± 0.021 |
| AGTGTTATTG | 0.976 ± 0.028 |
| TATACGGGAT | 1.06 ± 0.043 |
| TGGGGTGTGG | 1.23 ± 0.36 |
| TGATCAGGGG | 1.03 ± 0.021 |
| TTCTAGGGAA | 0.977 ± 0.023 |
| CCGTGGGTGT | 1.26 ± 0.15 |
| ATTGTTGCTG | 0.993 ± 0.061 |
| TTTCTTGGGC | 1.007 ± 0.0018 |

| Sequence | switch fluorescence ratio |
| --- | --- |
| AGTTGGCAAT | 1.24 ± 0.061 |
| GCGGGGGGGT | 1.01 ± 0.038 |
| TTCGGAGCTG | 1.07 ± 0.14 |
| TAGTAGGTTG | 0.979 ± 0.04 |
| GCTTTTAGGA | 1 ± 0.038 |
| TTAGAATTAG | 1 ± 0.017 |
| CTGGGACCAG | 1.019 ± 0.007 |
| TTTCATTATC | 1.02 ± 0.016 |
| CACGAGAAGT | 1.044 ± 0.0047 |
| TCGGGGATG | 1.52 ± 0.83 |
| CTGGGGTAGT | 1.03 ± 0.022 |
| TAACACTAGC | 1.011 ± 0.0037 |
| GAGGGACGAG | 1.05 ± 0.015 |
| TCAGAGGCGT | 0.9964 ± 0.0056 |
| CTTCGGTGTG | 1.04 ± 0.13 |
| AGGGTTCTGG | 0.971 ± 0.028 |
| TAACCAATTT | 1.01 ± 0.018 |
| TGTTAGGGTG | 1.04 ± 0.033 |
| TTAGATATTT | 0.98 ± 0.024 |
| AAGCCGTGTC | 1.01 ± 0.031 |
| AGAGGAGGGG | 1.01 ± 0.042 |
| TAAAGTCCGA | 1.014 ± 0.0028 |
| AGTATCCAAA | 0.999 ± 0.027 |

| Sequence | switch fluorescence ratio |
| --- | --- |
| TAGGGAGGCG | 0.962 ± 0.063 |
| ATCAAGGTTG | 0.978 ± 0.031 |
| AGTTTAGGGT | 1.03 ± 0.054 |
| ACCCAATTTT | 1.03 ± 0.036 |
| GATATGCCTG | 1.01 ± 0.069 |
| TGGAATTGTT | 1 ± 0.026 |
| AGGTTGAAGG | 0.997 ± 0.016 |
| GGGGGGAAAA | 0.986 ± 0.025 |
| TGTTAAAGTT | 0.9908 ± 0.0045 |
| TTGGGGGGAT | 1.02 ± 0.053 |
| TGCGCGCTGG | 1 ± 0.041 |
| GGAAACCCGC | 1.14 ± 0.071 |
| AGACTTTTGG | 0.987 ± 0.011 |
| GACAGGGGCG | 1.19 ± 0.16 |
| CAAGGAGGGG | 1.017 ± 0.0074 |
| CACCGGGCCT | 1.02 ± 0.016 |
| TTTTAAAAGG | 0.99 ± 0.037 |
| TTTGTCCGGT | 0.971 ± 0.018 |
| GGATTATATT | 1.0205 ± 0.00083 |
| GGGTTTGCAT | 1.02 ± 0.034 |
| TTTCAATGGA | 0.974 ± 0.018 |
| TTCTAGGCGG | 1.03 ± 0.029 |
| GAGAACGAGG | 0.983 ± 0.023 |

| Sequence | switch fluorescence ratio |
| --- | --- |
| TGCAAGTGAA | 0.997 ± 0.053 |
| TAGCAATTAT | 1.81 ± 0.085 |
| ATTAGTAGGT | 0.976 ± 0.012 |
| GATTGTACGA | 1.01 ± 0.031 |
| ATTGTAGAGC | 1.02 ± 0.01 |
| AACATCGTTT | 1.02 ± 0.019 |
| TGGTTTAGGT | 0.995 ± 0.028 |
| AACGTTATAA | 1.05 ± 0.02 |
| ATGGGGGTAG | 1.01 ± 0.048 |
| CTTTTAGTTA | 1.01 ± 0.015 |
| CAAGATTGTG | 1.01 ± 0.017 |
| CCAAGCTGAA | 1.22 ± 0.035 |
| TTGGCGCCTG | 0.9947 ± 0.0075 |
| CTAATTTTTT | 1.01 ± 0.025 |
| GAAAGGAGGG | 1.03 ± 0.065 |
| GTTTGGGGTC | 0.984 ± 0.018 |
| GGCCCTAGTA | 1 ± 0.059 |
| AGAAGTCGGA | 1 ± 0.011 |
| TAGCTTGTTT | 1.02 ± 0.022 |
| GTAGTTGGAA | 0.9968 ± 0.0085 |
| TAGTTGACAA | 0.99 ± 0.0024 |
| AGTTTTCAAG | 1 ± 0.026 |
| GGGAGTGGCC | 1.01 ± 0.032 |

| Sequence | switch fluorescence ratio |
| --- | --- |
| CCGGGTCAGC | 1.21 ± 0.026 |
| AGAAGGGTAT | 0.976 ± 0.017 |
| TGTTTCGGAA | 1.02 ± 0.038 |
| AATGAAAATC | 1.08 ± 0.15 |
| CGCGACTGGT | 0.994 ± 0.014 |
| GATAACGAAG | 1.008 ± 0.006 |
| TTTTAACGGG | 0.998 ± 0.027 |
| GGGGATTATT | 0.991 ± 0.036 |
| GACGGATGAC | 1.33 ± 0.15 |
| GCAACGGGTC | 1.03 ± 0.025 |
| AGCCAGAAGT | 0.991 ± 0.022 |
| AGGTTTTCGT | 1.028 ± 0.0039 |
| TTGATTATCC | 0.99 ± 0.019 |
| AGCAGAGGAC | 0.971 ± 0.058 |
| AACGTGTGGG | 0.996 ± 0.1 |
| TAGAACTGGG | 1.05 ± 0.037 |
| TTTAGTCGCA | 0.998 ± 0.035 |
| CTTGTATTGG | 1.03 ± 0.072 |
| TTTGGTTATT | 1 ± 0.04 |
| GATTTAGCTA | 1.014 ± 0.0034 |
| TGAATTATTT | 1.02 ± 0.035 |
| TAAGTCAGCT | 1 ± 0.032 |
| TTTCGCGATT | 2.32 ± 1.7 |

| Sequence | switch fluorescence ratio |
| --- | --- |
| GCCTTGGTGC | 1.08 ± 0.018 |
| GTTTTGGGAG | 1.02 ± 0.033 |
| ATTTTGTCCA | 1.02 ± 0.021 |
| TGATAAGAGT | 1.01 ± 0.011 |
| GGTTCCGCGG | 1.11 ± 0.025 |
| CCTGAGGTTC | 1.03 ± 0.061 |
| CGGTTTACGG | 0.986 ± 0.011 |
| CGCGCCGTTG | 1 ± 0.011 |
| TTAATTAACC | 1.13 ± 0.098 |
| TTTTCATGAG | 1.01 ± 0.012 |
| GGGTCAGAAA | 1.04 ± 0.11 |
| CTAAATTAGT | 0.995 ± 0.042 |
| CGTTGGTCAG | 1.02 ± 0.032 |
| TCAATGCATG | 0.983 ± 0.035 |
| TTTAATTA | 1.01 ± 0.032 |
| TGTTACTTAT | 1.05 ± 0.016 |
| TTATGGGGGT | 1.01 ± 0.03 |
| CACAGTTACC | 1.242 ± 0.0095 |
| GGGGGTGGTA | 0.99 ± 0.045 |
